# Experimental data as given in the RNAGym collection of RNA variant scans (doi:10.7554/elife.80360).
# B1: HDV Ribozyme (parent)
# chain: GGCCGGCAUGGUCCCAGCCUCCUCGCUGGCGCCGGCUGGGCAACAUUCCGAGGGGACCGUCCCCUCGGUAAUGGCGAAUGGGACCCA
# Variants of: B1
# Experiment: self-cleavage, relative activity (ratio to wild type); higher = more cleavage; co-transcriptional
row,Variant,self-cleavage
1,G6U G17C,0.0554
2,G6U G34C,0.0405
3,G6A G38A,0.0554
4,U47C C49A,0.95
5,G17A C18A,0.252
6,C19A A83U,0.138
7,C3U G39U,0.385
8,C21A G68C,0
9,G52A A87G,0.86
10,A8G A16U,0.895
11,U23G U65C,0.864
12,C14G A51U,0.791
13,A8G G76A,1.09
14,C4A C41A,0.117
15,U12C G73U,0.0811
16,C15A U60G,0.731
17,A16C U23C,0.87
18,C13A U79A,0.119
19,C13U U65C,0.604
20,G31U C86U,0.453
21,C3A G76A,0.783
22,C13U C75U,0.0314
23,C58G C85G,0.95
24,G25U C62U,0.0615

row,Variant,self-cleavage
1,C24A C48A,0.717
2,A8G G10A,0.369
3,A56U C84A,0.895
4,G35C G53A,0.172
5,C19G A42G,0
6,G68U,0.932
7,C32G C66U,0.162
8,G40C C63U,0.409
9,A56G G68U,1.18
10,G17C C64A,0.314
11,C18U G74U,0.166
12,C36G A45U,0.0791
13,U23A U60C,1.16
14,C4A G11A,0.0183
15,C14G G52C,0.519
16,U9C G55U,1.2
17,C63U G73U,0.409
18,G28A A43U,0.0241
19,A70C A71U,0.791
20,G5C A43U,0.0489
21,C30A U47G,0.682
22,G28U U65A,0.0339
23,C64A A87U,0.71
24,C22A A71U,0.326

row,Variant,self-cleavage
1,C48G C66A,0.898
2,G25C G28C,0
3,C18A C86A,0.106
4,A16C G82A,0.72
5,U27A A87U,0.602
6,G1C C63G,0.0639
7,A70C U79C,0.18
8,C4A A51U,0.145
9,C24G G50A,0.104
10,C32A G59C,0.271
11,C41U G82A,0.246
12,C24U C33G,0.166
13,A78C G82C,0.0831
14,U27C G74C,0.383
15,A8C G55A,0.636
16,C19A G28A,0.225
17,G10U U65C,0.831
18,C62A A71G,1.03
19,A45U U65G,0.615
20,C41A U69G,0.975
21,G39A G59C,0.546
22,G5C A16G,0.145
23,C15U C61G,0.898
24,U37C C41G,1.11

row,Variant,self-cleavage
1,A45C U69A,0.987
2,A16G G73U,0.391
3,G17C G25U,0.101
4,C18G C75A,0
5,C22G G35U,0.102
6,C19G A70C,0
7,G2A C19U,0
8,G10A C57A,0.727
9,U27G A77U,0.346
10,G38U G59C,0.264
11,C21A G31A,0.0482
12,G17C C26A,0.369
13,G2A G80A,0.0735
14,G55C U69A,0.973
15,C4A C48A,0.225
16,C66U A83G,0.643
17,C86U A87U,0.835
18,G1A,0.143
19,G2U G35C,0.016
20,C30G G54A,0.0811
21,C7U G53U,1.09
22,U47A G76A,0.901
23,G31U G39A,0.0361
24,C14A G68A,0.811

row,Variant,self-cleavage
1,G11U A83U,0.138
2,A43U C63A,0.716
3,G29C C86G,0.133
4,U20A A56G,0.0536
5,G28A A42C,0.128
6,G29U G54U,0.0449
7,G5C G31U,0.0405
8,C7A C36G,0.0875
9,C18U A51G,0.623
10,G53U G68U,0.703
11,C30G A56C,0.0415
12,G2U G73U,0.0361
13,A16G C32G,0.145
14,G68C A78G,0.426
15,C14A A16G,0.776
16,G29A A87U,0.155
17,C30A G73U,0.111
18,G6U G40C,0.193
19,U12C G28C,0
20,G2C C86G,0.0252
21,G2A C36U,0.537
22,C4G C21G,0
23,G11A C13U,0.0297
24,C33U A87U,0.885

row,Variant,self-cleavage
1,A43U U60A,0.594
2,U47A A78G,0.831
3,U9C U23A,1.13
4,G39U C48A,0.658
5,U20G G59C,0.361
6,G35C G80U,0.043
7,A70G A77G,0.831
8,C22A G53U,0.376
9,U27C C66U,0.534
10,C85U,0.978
11,C85A C86A,0.924
12,C48G C57A,0.798
13,G5C C26U,0.489
14,A16G G29U,0.0354
15,G1A C75A,0.161
16,C19U G80A,0.0573
17,G39A U47A,0.356
18,G10A U69C,0.997
19,G50A A56C,1.25
20,A43G C61G,0.739
21,U20C C48A,0.341
22,U23C C30U,0.755
23,C26U G68U,1.13
24,G53A G68A,0.743

row,Variant,self-cleavage
1,G6C G38C,0
2,G10A C86U,0.774
3,C18A U27G,0.115
4,C36U G74A,0.205
5,C21U U72C,0.284
6,C15G C32U,0.437
7,C15A C21G,0
8,U47A C49A,0.886
9,U65C G80C,0.249
10,U69G G74U,0.607
11,C3A G38A,0.124
12,A8C A87G,0.674
13,U9A U37G,0.208
14,G1U G82C,0.47
15,G52U U79G,0.521
16,C21U A77G,0.232
17,U12A C21A,0.0678
18,U60C C75U,0.203
19,C36G C49A,0.138
20,U9A G54A,0.943
21,C49A G81U,0.26
22,A43C U65C,0.482
23,G1U A78U,0.415
